Source: patent US20090228996A1, “Means and Methods for influencing Interactions Between Dc-Sign and Dc-Sign Ligands” (priority 2006, published 2009)

Experiments:
[1] = system: DC-SIGN mediated transfer of HIV-1 by Raji-DC-SIGN cells to CD4+ T-lymphocytes; experiment: DC-SIGN mediated HIV-1 transfer assay (Raji-DC-SIGN transfer culture assay); format: cell-based; conditions: BSSL isolated from S4, at 30 μg/ml and 1.2 μg/ml; P<0.05
Experimental: DC-SIGN mediated HIV-1 transfer assay. The Raji and Raji-DC-SIGN cells were plated at a concentration of 2×10^4 cells/well in a 96 well format. Dilutions of human milk or human milk compounds were made in PBS containing 10% FCS and spiked with 3.7log TCID50/ml of the appropriate virus before addition to the Raji-DC-SIGN cells. As controls PBS containing 10% FCS was spiked with the same TCID50/ml of the corresponding virus before addition to Raji or Raji-DC-SIGN cells. After incubation the culture was washed with PBS before addition of CD4^+ enriched T-lymphocytes at a concentration of 1×10^5 cells/well with p24 determined on day 7. DC-SIGN specific antibody binding after exposure to human milk. […] The cells were washed and resuspended in 100 μl TSM containing 0.5% bovine serum albumin, (BSA Fraction V, Fatty Acid-Free) (Calbiochem) and the adhesion was measured by flow cytometry (BD Biosciences).
DC-SIGN mediated HIV-1 transfer assay. […] After a two hour incubation the culture was washed with PBS before addition of CD4^+ enriched T-lymphocytes at a concentration of 1×10^5 cells/well with p24 values determined on day 7.

DC-SIGN-Fc = target: T1, DC-SIGN-Fc (Homo sapiens, UniProt Q9NNX6); experiment: DC-SIGN-Fc binding ELISA
T1 construct: the extracellular portion of DC-SIGN (amino acids 64 to 404)
T1 sequence (Q9NNX6 64-404): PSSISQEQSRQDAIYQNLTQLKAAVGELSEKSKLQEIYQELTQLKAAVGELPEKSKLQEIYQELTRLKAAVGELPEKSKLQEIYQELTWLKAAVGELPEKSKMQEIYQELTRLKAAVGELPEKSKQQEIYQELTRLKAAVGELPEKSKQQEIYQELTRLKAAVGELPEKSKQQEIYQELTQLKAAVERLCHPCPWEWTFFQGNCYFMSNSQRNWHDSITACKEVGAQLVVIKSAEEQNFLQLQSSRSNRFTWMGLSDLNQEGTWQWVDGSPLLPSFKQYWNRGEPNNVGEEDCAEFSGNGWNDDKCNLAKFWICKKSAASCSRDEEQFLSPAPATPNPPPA
Experimental: DC-SIGN-Fc binding ELISA. The DC-SIGN-Fc chimera contained the extracellular portion of DC-SIGN (amino acids 64 to 404) fused at the C-terminus to a human immunoglobulin (Ig) G1 Fc fragment and has been previously described (Geijtenbeek et al, 2002). Human milk or human milk compounds were diluted in 0.2M NaHCO3, coated on ELISA plates (maxisorb plate; Nunc) and incubated overnight at 4° C. or 2 hours at 37° C. This was followed by blocking with TSM containing 1% BSA for 30 minutes at 37° C. before addition of soluble DC-SIGN-Fc (5 μg/ml) for 2 hours at RT, the binding was determined by incubation of a peroxidase labeled anti-IgG1 antibody for 30 minutes at RT. DC-SIGN-Fc binding specificity was determined by pre-incubation of the DC-SIGN-FC with either 50 μg/ml DC-SIGN specific mouse antibody AZN-D1 (Geijtenbeek et al, 2000 a) or 10 mM EGTA. Single-cycle-replication transmission assay. The assay was performed as previously described (Groot et al, 2005). In short mDCs and iDCs were incubated in a 96-well-plate (35−50×10^3 DC/well) with human milk for 30 minutes at 37° C. before addition of the virus (5 ng p24/well), which was incubated for 2 hours at 37° C. The DCs were washed twice with PBS before addition of 50×10^3 LuSIV cells. After 24 hours, LuSIV cells were harvested and resuspended in 50 μl lysis buffer (25 mM Tris-Cl 7.8, 2 mM DTT, 2 mM CDTA, 10% glycerol, 1% Triton X100). The cells were then incubated for 45 minutes at room temperature while shaking, followed by 10 minutes centrifugation at 3200×g. The supernatant was transferred to a white-solid 96 well plate (Corning Costar), and 150 μl of lucibuffer (100 μg/ml BSA, 6.6 mM ATP, 15 mM MgSO4, 25 mM glycylglycine) was added. 100 μl of DE(−)Luciferin (Roche Diagnostics GmbH) was injected per well (0.28 mg/ml lucibuffer excluding ATP). 50×10^3 LuSIV cells grown without DC or HIV-1 were used to obtain the background luciferase value.
DC-SIGN-Fc binding ELISA. The DC-SIGN-Fc chimera contained the extracellular portion of DC-SIGN (amino acids 64 to 404) fused at the C-terminus to a human immunoglobulin (Ig) G1 Fc fragment which has been previously described (Geijtenbeek et al, 2002). Human milk or BSSL were diluted in 0.2 M NaHCO3, coated on ELISA plates (maxisorb plate; Nunc) and incubated overnight at 4° C. or 2 hours at 37° C. This was followed by blocking with TSM containing 1% BSA for 30 minutes at 37° C. before addition of soluble DC-SIGN-Fc (5 μg/ml) for 2 hours at RT, the binding was determined by incubation of a peroxidase labeled anti-IgG1 antibody for 30 minutes at RT. DC-SIGN-Fc binding specificity was determined by pre-incubation of the DC-SIGN-Fc with either 50 μg/ml DC-SIGN specific mouse antibody AZN-D1 (Geijtenbeek et al, 2000 a) or 10 mM EGTA.

B1: BSSL: Bile salt stimulated lipase glycoprotein isolated from human milk (S4) (protein, UniProt P19835 21-753, looked up)
Bile salt-activated lipase: AKLGAVYTEGGFVEGVNKKLGLLGDSVDIFKGIPFAAPTKALENPQPHPGWQGTLKAKNFKKRCLQATITQDSTYGDEDCLYLNIWVPQGRKQVSRDLPVMIWIYGGAFLMGSGHGANFLNNYLYDGEEIATRGNVIVVTFNYRVGPLGFLSTGDANLPGNYGLRDQHMAIAWVKRNIAAFGGDPNNITLFGESAGGASVSLQTLSPYNKGLIRRAISQSGVALSPWVIQKNPLFWAKKVAEKVGCPVGDAARMAQCLKVTDPRALTLAYKVPLAGLEYPMLHYVGFVPVIDGDFIPADPINLYANAADIDYIAGTNNMDGHIFASIDMPAINKGNKKVTEEDFYKLVSEFTITKGLRGAKTTFDVYTESWAQDPSQENKKKTVVDFETDVLFLVPTEIALAQHRANAKSAKTYAYLFSHPSRMPVYPKWVGADHADDIQYVFGKPFATPTGYRPQDRTVSKAMIAYWTNFAKTGDPNMGDSAVPTHWEPYTTENSGYLEITKKMGSSSMKRSLRTNFLRYWTLTYLALPTVTDQEATPVPPTGDSEATPVPPTGDSETAPVPPTGDSGAPPVPPTGDSGAPPVPPTGDSGAPPVPPTGDSGAPPVPPTGDSGAPPVPPTGDSGAPPVPPTGDSGAPPVPPTGDSGAPPVPPTGDAGPPPVPPTGDSGAPPVPPTGDSGAPPVTPTGDSETAPVPPTGDSGAPPVPPTGDSEAAPVPPTDDSKEAQMPAVIRF
[1]
  inhibition of DC-SIGN mediated HIV-1 transfer: significant inhibition
DC-SIGN-Fc; BSSL at 30 μg/ml, 3 μg/ml and 0.3 μg/ml, P<0.01
  DC-SIGN-Fc binding: binding
DC-SIGN-Fc; binding not fully alleviated, data not shown
  effect of trypsinization of purified BSSL: trypsin sensitive
DC-SIGN-Fc; data not shown
  effect of heat treatment of purified BSSL: heat resistant
